doi:10.1101/2022.06.23.497280 (bioRxiv, 2022)

T1: HU-B (UniProt P0ACF4 1-90, F47W)
T1 sequence: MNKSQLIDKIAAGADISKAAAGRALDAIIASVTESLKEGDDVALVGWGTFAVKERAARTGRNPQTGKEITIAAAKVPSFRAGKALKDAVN

B1: HU-A (F79W mutant of HU-A) (natural protein, E. coli)
chain: MNKTQLIDVIAEKAELSKTQAKAALESTLAAITESLKEGDAVQLVGFGTFKVNHRAERTGRNPQTGKEIKIAAANVPAWVSGKALKDAVK
B2: 4WJ DNA (four-way junction, cruciform) (structured_DNA)
DNA 1: CCCTATAACCCCTGCATTGAATTCCAGTCTGATAA
DNA 2: GTAGTCGTGATAGGTGCAGGGGTTATAGGG
DNA 3: AACAGTAGCTCTTATTCGAGCTCGCGCCCTATCACGACTA
DNA 4: TTTATCAGACTGGAATTCAAGCGCGAGCTCGAATAAGAGCTACTGT

Assays:
SEC = target: the molecule itself; assay: SEC
HU-B = target: T1, HU-B; assay: EMSA
HU-A = HU-A (UniProt P0ACF0 1-90, F79W); assay: EMSA

Row | Binder | stoichiometry N (SEC) | binding result (HU-B) | binding result (HU-A)
1 | B1 | 2 | – | –
2 | B2 | – | binds | binds
